From patent US20250250357A1 (NANJING ZAIMING PHARMACEUTICAL, published 2025)

How the values were obtained:
[1] = biological target: T1, human MSLN-R2-his protein (human, UniProt Q13421 391-486); assay: ELISA on coated antigen, antibody 0.0002 nM
T1 construct: it is put last here; also called human MSLN-R2 protein; hMSLN-R2-his; not shown: His tag

[2] = biological target: T1, human MSLN-R2-his protein; assay: ELISA on coated antigen, no antibody (blank, column 'none')
Description: (§1) The plate was sealed with a plastic film and incubated at 4° C. overnight. The next day, the plate was washed twice with PBST, and a blocking buffer [PBS+2% (w/w) BSA] was added for blocking at room temperature for 2 h. The blocking buffer was discarded, and a chimeric antibody or negative control antibody serially diluted from 100 nM was added at 50 μL/well. After incubation at 37° C. for 2 h, the plate was washed 3 times with PBST. […] After incubation at 37° C. for 2 h, the plate was washed 5 times with PBST. A TMB substrate was added at 50 μL/well for incubation at room temperature for 5-10 min, and then a stop solution (1.0 N HCl) was added at 50 μL/well.

[3] = biological target: T1, human MSLN-R2-his protein; assay: ELISA on coated antigen, antibody 2 nM
Description: as §1

[4] = biological target: T2, human MSLN-R3-his protein (human, UniProt Q13421 487-598); assay: ELISA on coated antigen, antibody 0.2 nM
T2 construct: it is put last here; also called human MSLN-R3 protein; hMSLN-R3-his; not shown: His tag
T2 sequence (Q13421 495-606): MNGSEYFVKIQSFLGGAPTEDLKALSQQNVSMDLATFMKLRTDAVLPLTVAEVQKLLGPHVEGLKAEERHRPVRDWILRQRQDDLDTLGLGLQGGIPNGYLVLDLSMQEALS

[5] = biological target: T2, human MSLN-R3-his protein; assay: ELISA on coated antigen, antibody 0.02 nM
Description: as §1

[6] = biological target: T1, human MSLN-R2-his protein; assay: ELISA on coated antigen, antibody 0.002 nM
[7] = biological target: T2, human MSLN-R3-his protein; assay: ELISA on coated antigen, antibody 0.0002 nM
Description: as §1

[8] = biological target: T2, human MSLN-R3-his protein; assay: ELISA on coated antigen, antibody 200 nM
[9] = biological target: T2, human MSLN-R3-his protein; assay: ELISA on coated antigen, antibody 2 nM
[10] = biological target: T2, human MSLN-R3-his protein; assay: ELISA on coated antigen, antibody 0.002 nM
Description: as §1

[11] = biological target: T1, human MSLN-R2-his protein; assay: ELISA on coated antigen, antibody 200 nM
Description: as §1

[12] = biological target: T1, human MSLN-R2-his protein; assay: ELISA on coated antigen, antibody 0.02 nM
[13] = biological target: T1, human MSLN-R2-his protein; assay: ELISA on coated antigen, antibody 20 nM
Description: as §1

[14] = biological target: T1, human MSLN-R2-his protein; assay: ELISA on coated antigen, antibody 0.2 nM
Description: as §1

[15] = biological target: T2, human MSLN-R3-his protein; assay: ELISA on coated antigen, antibody 20 nM
Description: as §1

[16] = biological target: T2, human MSLN-R3-his protein; assay: ELISA on coated antigen, no antibody (blank, column 'none')
Description: as §1

T1 sequence (Q13421 other isoform, or with tags, fused parts or gaps): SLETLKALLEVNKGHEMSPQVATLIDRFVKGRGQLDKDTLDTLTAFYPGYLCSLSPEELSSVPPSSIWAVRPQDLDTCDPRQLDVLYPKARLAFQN

Binder	OD450 [1]	OD450 [2]	OD450 [3]	OD450 [4]	OD450 [5]	OD450 [6]	OD450 [7]	OD450 [8]	OD450 [9]	OD450 [10]	OD450 [11]	OD450 [12]	OD450 [13]	OD450 [14]	OD450 [15]	OD450 [16]
S009-F7.61.21 (antibody, human IgG1, kappa, V domains shown, Human-murine chimeric antibody, human IgG1 heavy and kappa light constant regions) VH: DVQLQQSGPELVEPGASVRIPCKAAGHTFTDYNVDWVKQSHGQSLEWIGDVNPNTDGAIYNQKFEGKATLTVDTSSSTAYMELRSLTSEDTAVYFCARRRLGQGGFDSWGQGTTLTVSS VL: QVVLTQSPAIMSASPGEKVTLTCGASSSLISKYLYWYQQKPGSSPKLWIYSTSNLASGVPARFSGSGSGTSYSLTISSMEAEDAASYFCHQWSSYPYTFGGGTKVEIKR	0.05 OD	0.07 OD	0.05 OD	0.8 OD	0.17 OD	0.05 OD	0.05 OD	2.61 OD	2.17 OD	0.06 OD	0.09 OD	0.05 OD	0.06 OD	0.05 OD	2.39 OD	0.06 OD
S009-F7.65.13 (antibody, human IgG1, kappa, V domains shown, Human-murine chimeric antibody, human IgG1 heavy and kappa light constant regions) VH: EVQLQQSGPELVKPGTSVKILCKASGDTFTAYNMDWVKQRHGQSLEWIGDINPNTDSTIYNQKFEGKAILTVDKSSSTAYMELRSLTSEDTAVYYCARRKLGRGYFDYWGQGTTLTVSS VL: QIVLTQSPAIMSASPGEKVTMTCSVNLSVRYIYWYQQKPGSSPRLLIHDTSNLASGVPVRFSGSGSGTSYSLTISRMEAEDAATYYCQQWSSFPYTFGGGTKLEIKR	0.05 OD	0.07 OD	0.05 OD	1.3 OD	0.35 OD	0.05 OD	0.07 OD	2.63 OD	2.39 OD	0.14 OD	0.1 OD	0.05 OD	0.05 OD	0.05 OD	2.34 OD	0.07 OD

Other lines, results leading:

OD450 [1]	OD450 [2]	OD450 [3]	OD450 [4]	OD450 [5]	OD450 [6]	OD450 [7]	OD450 [8]	OD450 [9]	OD450 [10]	OD450 [11]	OD450 [12]	OD450 [13]	OD450 [14]	OD450 [15]	OD450 [16]	Binder
0.05 OD	0.06 OD	0.06 OD	1.93 OD	0.69 OD	0.05 OD	0.11 OD	2.75 OD	2.45 OD	0.24 OD	0.1 OD	0.05 OD	0.07 OD	0.06 OD	2.49 OD	0.07 OD	S009-F7.67.12 (antibody, human IgG1, kappa, V domains shown, Human-murine chimeric antibody, human IgG1 heavy and kappa light constant regions) VH: QVQLQQPGTELVKPGASVRLSCRASGYSFSSYWMHWVKQRPGQGLEWLGNINPTTGDINYNEKFRNRATLAVDKSSTTAYLQLTSLTSEDSAVYFCVRHDGFLWGQGTTLTVSS VL: DIQMTQSPASLSASVGETVTITCRASENIYSYLAWYQQKQGKSPQLLVYYAKTLAEGVSSRFSGSGSGTQFSLKINSLQPEDFGTYYCQHQFGTPRTFGGGTKLEIRR
0.27 OD	0.07 OD	0.06 OD	1.95 OD	0.04 OD	0.05 OD	0.14 OD	2.6 OD	2.25 OD	0.23 OD	0.28 OD	0.05 OD	0.09 OD	0.05 OD	2.37 OD	0.06 OD	S009-F7.66.12 (antibody, human IgG1, kappa, V domains shown, Human-murine chimeric antibody, human IgG1 heavy and kappa light constant regions) VH: QIPLQQSGPELVKPGASVRISCKASDYAFSSSWMNWVKQRPEKGLEWIGRIFVESGNTHYNDKFNGKATLTADKSSRTAYIQLSSLTSEDSAVYFCTRENIFYHGHSSWFAYWGQGTLVTVSA VL: DIVLTQSPASLVVSLGQRATISCRAGESVDDFGISYVHWYQQKPGQPPKLLIYRAANLESGIPARFSGSGSRTDFTLTINPVETDDVAIYYCQQNNKDPFTFGSGTKLEIKR
